# B1: HSC-T6 cells (receptor)
# chain: QAVDLDALCSYTWEAVDSKNNAVYKINPCGHVDNPRCGPTSAVCMCDLKSENCRSVGDSLLRSSAKSLLEFNTTTGCQPSEHRIQTSITFLCGKTLGTPEFVTATDCVHYFEWRTTAACKKDIFKADKEVPCYVFDDKLQKHDLNPLIKLNGGYLVDDSDADASLFINVCRDIDSLRDPSTQLRVCPAGTAACLLKGNQAFDVGRPKEGLKLLSKDRLVLTYVKEEGEKPDFCNGHSPAVTVTFVCPSERREGTIPKLTAKSNCRYEVEWITEYACHRDYLESETCSLSSEQHDIAIDLSPLAQHEEGSPYVADGGEYRFFMNVCGDTKVSLCNKEAAVCQEKKVDSTQVKIAGRHQNQTLRYSDGDLTLIYSGGDECSSGFQRMSVINFECNKTAGQDGRGEPVFTGEVDCTYFFTWDTKYACVKEKEDLLCGAIDGKKRYDLSVLARHSESEQNWEAVDGSQAESEKRNFFINVCHRVLQAGKAKNCPEGAAVCAVDKSGSKNLGKFVSSPTKEKGHIQLSYSDGDDCGNDKKITTNITFVCKPGDLESAPVLRAAGPDGCSYEFEWHTAAACVLSQTEGENCTVLDAQAGFSFDLSLLTKKNGAYKVETDKYDFYINVCGPVSVNLCQSNSGACQVAKSGKSWNLGLSNTKLTYYDGMIQLSYRNGTLYNNEKHTPRSTLITFLCDRDAGVGFPEYQEEDNSTYNFRWYTSYACPEEPLECMVTDPSMMEQYDLSSLVKFEGGRGGNWYAMENSREHFTRRKYYLNVCRPLNPVPGCDRYASACQMKYENNEGSLAETVAISNLGVAKTGPVVEESGSLLLEYVNGSACTTSDGRLTTYSTRIHLVCGRGTMNSHPIFTFNWECVVSFLWNTEAACPIQTITDSDQACSIRDPNSGFVFNLSPLNYSQGHMVLGIGKTFVFNICGTMPACGTVAGKPALGCEAETKIKDIKDLKPERPVGMEKSLQLSAEGFLTLTYKGSSPSDRGTAFIIRFICNGDIYPGTPKFLHQDIDSARGIRNTFFEFETALACIPSVVDCQVTDPAGNEYDLSALSMVRKPWTAVDTSVHGKKRRFYLSVCTPLPYIPGCDGIAMGSCMVSEDKSQNLGVVQISPQATGNGSLSILYVNGDRCGNQRYSTRIVFECAQTSGSPMFQLLNNCEYVFVWRTVEACPVVREEGDNCQVKDPRHGNLYDLKPLALNDTIISAGEYTYYFRVCGKLSLDVCSAHDGSKAVSSCQEKKGPQGFQKVAGLLNQKLTFENGLLKMNYSGGDTCHKVYQRSTTIYFYCDRTTQKPVFLKETLDCSYLFEWRTQYACPPFNVTECSIQDEAGNSIDLSSLSRYSDNWEAVTRTGATEHYLINVCKSLSPQAGTDPCPPEAAVCLLDGSKPVNLGRVRDGPQWTAGVTVLKYVDGDLCPDKIRKRSTIIRFTCSDSQVNSRPLFISAVQDCEYTFSWPTPAACPVKSNIHDDCQVTNPSTGHLFDLSSLSGKAGITASYSEKGMVFMSICEENVNCSPGVGACFGQTRISVGQASKRLSYKDQVLQLVYENGSPCPSKSGLRYKSVISFVCRPEAGPTNRPMLISLDKQSCTLFFSWHTPLACEQATECTVRNGSSIIDLSPLIHRTGGYEAYDESEDDTSDTTPDFYINICQPLNPMHGVPCPAGASVCKVPVDGPPIDIGRVTGPPIFNPVANEVYLNFESSTPCLADKYMNYTSLIAFHCRRGISMVTRDAHTYSIGVCTTAADLDQEGCKDGGVCLLSGSKGASFGRLASMQLDYRHQDEAVILSYVNGDPCPPETEDGEPCVFPFIYKGETYDECVLEGRAKLWCSKTANYDRDHEWGFCRPSTLSICAKEYIKVPWTALREPAFARRVPLVKSRFWGLFILKNWKS
# How the values were obtained:
# 422 = assay: cell binding (labeled cells %); HSC-T6 cells; apparent Kd
# 515 = assay: as above
binder,measurement,setting,value
B1,Kd,422,402 µM
same,Kd,515,57.6 µM
